Results on 1 molecule are retold here after patent US20260055207A1 (NATIONAL UNIVERSITY CORPORATION YAMAGATA UNIVERSITY, published 2026).

For this test, the target named is T1, HER2-hFc (UniProt P04626 23-652).
T1 construct: Immobilized on a CM5 sensor chip; also called HER2 immobilized on a sensor chip; not shown: hFc part
In words: SPR (Biacore T200), HER2-hFc immobilized on CM5 chip, antibody flowed at 1-16 nmol/l. The method, then: It was examined using a surface plasmon resonance method whether the Herceptin-Okt3 bispecific antibody obtained in Example 1(6) above could maintain a binding to Her2. Specifically: the Herceptin-Okt3 bispecific antibody was allowed to flow over HER2 immobilized on a sensor chip at a predetermined flow rate, and measurement was conducted using an intermolecular interaction analyzer. The Herceptin-Okt3 bispecific antibody purified in Example 1(6) above was diluted with 1×PBS-Tween20 to 1 nmol/l. 2 nmol/l. 4 nmol/l. 8 nmol/l, and 16 nmol/l. After the dilution, a surface plasmon resonance measuring apparatus (Biacore T200, manufactured by Cytiva) was used to measure the binding strength by allowing the diluted solution containing the Herceptin-Okt3 bispecific antibody to flow over HER2-hFc immobilized on a CM5 sensor chip (manufactured by GE Healthcare).
In FIG. 7, the horizontal axis indicates the time (minute), and the vertical axis indicates the response unit (RU).
(In general: In SPR one partner is held on a chip, and binding of the other changes the refractive index at the surface.)

B1: Herceptin-OKT3 bispecific antibody (bispecific antibody)
heavy 1: not shown
light 1: DIQMTQSPSSLSASVGDRVTITCSASSSVSYMNWYQQTPGKAPKRWIYDTSKLASGVPSRFSGSGSGTDYTFTISSLQPEDIATYYCQQWSSNPFTFGQGTKLQITRTVA
heavy 2: not shown
light 2: not shown
Usually Kd stands for the free concentration of one partner at which half of the binding sites on the other are occupied at equilibrium, for simple one-to-one binding. The molecule B1 displayed a Kd of 2.25 nM.
